Laboratory results taken from the supplement of paper PMC9233669.
This sample holds only a part of the variants without activity.

What was measured:
biotinyl-Phe-oxazolone = test: self-aminoacylation, catalytic enhancement (BFO) (fold over background); higher = more active; k-Seq, kA / k0A0; sequences stand for … in GGGAAUGGAUCCACAUCUACGAAUUC…UUCACUGCAGACUUGACGAAGCUG
How it was run: (§1)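 The uncatalyzed rate is the low-activity peak of a bimodal Gaussian fit, and catalytic enhancement is median kA divided by it. The kA values came from pseudo-first-order fits, with 1000 bootstraps, of per-sequence fraction reacted measured by streptavidin capture, triplicate qPCR and Illumina sequencing. Mutagenized RNA pools with a 21-nt variable region (0.43 μM) were reacted with each biotinyl-aminoacyl-oxazolone at 2–1250 μM in 50 μL HEPES/NaCl/KCl/MgCl2/CaCl2 buffer with 5% acetonitrile, pH 6.9–7.0, for 90 minutes at room temperature.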

biotinyl-Trp-oxazolone = test: self-aminoacylation, catalytic enhancement (BWO) (fold over background); higher = more active; k-Seq, kA / k0A0; sequences stand for … in GGGAAUGGAUCCACAUCUACGAAUUC…UUCACUGCAGACUUGACGAAGCUG
How it was run: as §1

Row | Sequence | self-aminoacylation (biotinyl-Phe-oxazolone) | self-aminoacylation (biotinyl-Trp-oxazolone)
1 | AAGUUUGGUCAUAGUCGCAAG [Fam3.1 aminoacylation ribozyme variant] | 2.71 | 2.16
2 | AUACUUCAAACAAUCGGGCUG [Fam1A.1 aminoacylation ribozyme variant] | 3.63 | 3.93
3 | CGUCACUUCAAGCAAUCGGUC [Fam1B.1 aminoacylation ribozyme variant] | 22 | 11.1
4 | AAGUGUGCUAAUAGUCGCAGG [Fam3.1 aminoacylation ribozyme variant] |  | 2.17
5 | CUACUUCAACAAAUCGGUCUG [Fam1A.1 aminoacylation ribozyme variant] | 7.2 | 5.45
6 | UUAUUUCAAACAAUCGGUCUG [Fam1A.1 aminoacylation ribozyme variant] | 5.5 | 3.27
7 | AAGUUAGCUAAUAGGCGCAAG [Fam3.1 aminoacylation ribozyme variant] | 2.32 | 2.47
8 | CUACUUCAACUAAUCGGUCUG [Fam1A.1 aminoacylation ribozyme variant] | 12.9 | 8.63
9 | CCACACUCCGAGCAAUCGGUC [Fam1B.1 aminoacylation ribozyme variant] |  | 2.37
10 | CUGCUUCAAACAAUCGGUCAG [Fam1A.1 aminoacylation ribozyme variant] | 41.9 | 23
11 | AAGUUUGCUAAAAGUCGAAAG [Fam3.1 aminoacylation ribozyme variant] | 4.76 | 2.17
12 | CCACCCUUCAAGCCAUCGGUC [Fam1B.1 aminoacylation ribozyme variant] |  | 2.57
13 | AAGCUUGCUAAUAGUCGCUAG [Fam3.1 aminoacylation ribozyme variant] | 2.31 | 2
14 | GUGUUUGCUAAUAGUCGCAAG [Fam3.1 aminoacylation ribozyme variant] | 5.9 | 4.15
15 | CUACUUCAAACAAUCAGUCGG [Fam1A.1 aminoacylation ribozyme variant] | 11.2 | 5.8
16 | AAGUUUGCUAAUUGUCGCAAA [Fam3.1 aminoacylation ribozyme variant] | 8.83 | 2.49
17 | GUACUACAAACAAUCGGUCUG [Fam1A.1 aminoacylation ribozyme variant] |  | 2.14
18 | AUUCAGCUAGGUCAUCGGGUC [Fam2.2 aminoacylation ribozyme variant] | 13.5 | 3.24
19 | CAACACUUCAAGAAAUCGGUC [Fam1B.1 aminoacylation ribozyme variant] | 7.2 | 5.88
20 | AAGUGUGCUAAUAGUCGCAAU [Fam3.1 aminoacylation ribozyme variant] |  | 2.01
21 | CCACUCUUCAAGCAAUCGGUC [Fam1B.1 aminoacylation ribozyme variant] | 32.1 | 15.1
22 | CGACUUCAAACAAUCGGACUG [Fam1A.1 aminoacylation ribozyme variant] | 6.95 | 3.53

Row | Sequence | self-aminoacylation (biotinyl-Phe-oxazolone) | self-aminoacylation (biotinyl-Trp-oxazolone)
23 | AUACUUCAAAAAAUCGGUCUG [Fam1A.1 aminoacylation ribozyme variant] | 4.26 | 3.25
24 | AAGUUAGGUAAUAGUCGCAAG [Fam3.1 aminoacylation ribozyme variant] |  | 2.11
25 | AAGUUGGCUAAUAGUCGCAAG [Fam3.1 aminoacylation ribozyme variant] | 4.46 | 2.29
26 | CUACUUCAAACAAUCGGUCCC [Fam1A.1 aminoacylation ribozyme variant] | 11.1 | 6.63
27 | GUACUUCAAGCAAUCGGUCUG [Fam1A.1 aminoacylation ribozyme variant] | 8.1 | 7.17
28 | CAACUUCAAAGAAUCGGUCUG [Fam1A.1 aminoacylation ribozyme variant] | 7.1 | 7.86
29 | CCACUUCAAACAAUCGGUAUG [Fam1A.1 aminoacylation ribozyme variant] | 21.3 | 12.7
30 | AUUACCCUGGUCAUUGAGUAA [Fam2.1 aminoacylation ribozyme variant] |  | 2.02
31 | CCAACCUUCAAGCAAUCGGUC [Fam1B.1 aminoacylation ribozyme variant] | 25.8 | 15.3
32 | AAGUUUGCUAUUAGUCGCAGG [Fam3.1 aminoacylation ribozyme variant] |  | 2.01
33 | CCAAACUUCAAGUAAUCGGUC [Fam1B.1 aminoacylation ribozyme variant] | 10.5 | 7.85
34 | CUACUUCAAAAAAUCGGUAUG [Fam1A.1 aminoacylation ribozyme variant] | 4.4 | 2.5
35 | AUACUUCAAACAAUCGGUCGG [Fam1A.1 aminoacylation ribozyme variant] | 5.46 | 4.83
36 | AUGUUUGCUAAUAGUCGUAAG [Fam3.1 aminoacylation ribozyme variant] | 18.7 | 5.05
37 | CGACUUCAAACAAUCGGUCCG [Fam1A.1 aminoacylation ribozyme variant] | 4.63 | 4.64
38 | CUACUUCAACCAAUCGGUCGG [Fam1A.1 aminoacylation ribozyme variant] | 14.3 | 8.86
39 | CCACACUGCAAGCCAUCGGUC [Fam1B.1 aminoacylation ribozyme variant] |  | 2.76
40 | AAGUGUGCUAAUCGUCGCAAG [Fam3.1 aminoacylation ribozyme variant] |  | 2.44
41 | AAUGUUGCUAAUAGUCGCAAG [Fam3.1 aminoacylation ribozyme variant] | 2.37 | 2.02
42 | AAGAUUGCUAAUAGUCGCCAG [Fam3.1 aminoacylation ribozyme variant] |  | 2.02
43 | CUGCGUCAAACAAUCGGUCUG [Fam1A.1 aminoacylation ribozyme variant] | 8.22 | 7.19
44 | UCACACUUCAAGUAAUCGGUC [Fam1B.1 aminoacylation ribozyme variant] | 12.7 | 7.97

Row | Sequence | self-aminoacylation (biotinyl-Phe-oxazolone) | self-aminoacylation (biotinyl-Trp-oxazolone)
45 | CCAGACUUCAAGAAAUCGGUC [Fam1B.1 aminoacylation ribozyme variant] | 8.29 | 6.84
46 | AAGGUUGCUAAUAGUCGUAAG [Fam3.1 aminoacylation ribozyme variant] | 13.7 | 4.23
47 | GAGUUUUCUAAUAGUCGCAAG [Fam3.1 aminoacylation ribozyme variant] | 3.59 | 2.07
48 | CUGCUACAAACAAUCGGUCUG [Fam1A.1 aminoacylation ribozyme variant] | 2.73 | 2.27
49 | CAACUUCAAACAAUCCGUCUG [Fam1A.1 aminoacylation ribozyme variant] | 2.94 | 2.31
50 | CUACUUCAAAAAAUCGGGCUG [Fam1A.1 aminoacylation ribozyme variant] | 3.05 | 3.06
51 | AAGAUUGCUAAUUGUCGCAAG [Fam3.1 aminoacylation ribozyme variant] |  | 3.92
52 | UUACUUCAAUCAAUCGGUCUG [Fam1A.1 aminoacylation ribozyme variant] | 19.7 | 15
53 | AAGUUGGCUAAUAGUCGAAAG [Fam3.1 aminoacylation ribozyme variant] | 2.91 | 2.27
54 | CCAGACUUCAAUCAAUCGGUC [Fam1B.1 aminoacylation ribozyme variant] | 34.2 | 21.1
55 | CCAGCCUUCAAGCAAUCGGUC [Fam1B.1 aminoacylation ribozyme variant] | 30.7 | 21.3
56 | UAGUUUCCUAAUAGUCGCAAG [Fam3.1 aminoacylation ribozyme variant] | 2.31 | 2.1
57 | AUUACCCGGGUCAUCGAGUUA [Fam2.1 aminoacylation ribozyme variant] |  | 2.23
58 | AAGUUAGCUAGUAGUCGCAAG [Fam3.1 aminoacylation ribozyme variant] |  | 2.01
59 | AUUCACCUGGGUCAUCGUGUG [Fam2.2 aminoacylation ribozyme variant] | 4.81 | 
60 | AAGAUUGCUAAUAGUCGCAAC [Fam3.1 aminoacylation ribozyme variant] | 2.08 | 
61 | GUUACCCUGGUCAUCGAUUGA [Fam2.1 aminoacylation ribozyme variant] | 2.77 | 
62 | AUUACCCUGGCCAUCGACUGA [Fam2.1 aminoacylation ribozyme variant] | 2.83 | 
63 | AAGUUUGCGAAUAGCCGCAAG [Fam3.1 aminoacylation ribozyme variant] | 4.03 | 
64 | CCAAACUUCGAGCAAUCGGUC [Fam1B.1 aminoacylation ribozyme variant] | 2.34 | 
65 | CGACACUUCAAGCAAUCGGUU [Fam1B.1 aminoacylation ribozyme variant] |  | 2.37
66 | AAGUCUGCUAAUAGUCGCAAA [Fam3.1 aminoacylation ribozyme variant] | 2.14 | 
